Substrate in the data set: O=C(O)CC(C(=O)O)C(O)C(=O)O
Nature of the data set: purified protein. The data set is classed as biochemical, Homo sapiens. As to conditions: no activators, 2 mM Mn2+, 3.2 mM NAD, 33 mM Tris-acetate pH 7.4, 25 °C, Hill 2.0, racemic DL-ICT varied.

Changes are numbered by the printed parent chain. Names may count otherwise.

B1: αγ heterodimer of human NAD-IDH (IDH3) (Homo sapiens; P51553:R136A) (protein)
chain 1: TGGVQTVTLIPGDGIGPEISAAVMKIFDAAKAPIQWEERNVTAIQGPGGKWMIPSEAKESMDKNKMGLKGPLKTPIAAGHPSMNLLLRKTFDLYANVRPCVSIEGYKTPYTDVNIVTIRENTEGEYSGIEHVIVDGVVQSIKLITEGASKRIAEFAFEYARNNHRSNVTAVHKANIMRMSDGLFLQKCREVAESCKDIKFNEMYLDTVCLNMVQDPSQFDVLVMPNLYGDILSDLCAGLIGGLGVTPSGNIGANGVAIFESVHGTAPDIAGKDMANPTALLLSAVMMLRHMGLFDHAARIEAACFATIKDGKSLTKDLGGNAKCSDFTEEICRRVKDLD
chain 2: FSEQTIPPSAKYGGRHTVTMIPGDGIGPELMLHVKSVFRHACVPVDFEEVHVSSNADEEDIRNAIMAIRRNRVALKGNIETNHNLPPSHKSRNNILATSLDLYANVIHCKSLPGVVTRHKDIDILIVRENTEGEYSSLEHESVAGVVESLKIITKAKSLRIAEYAFKLAQESGRKKVTAVHKANIMKLGDGLFLQCCREVAARYPQITFENMIVDNTTMQLVSRPQQFDVMVMPNLYGNIVNNVCAGLVGGPGLVAGANYGHVYAVFETATRNTGKSIANKNIANPTATLLASCMMLDHLKLHSYATSIRKAVLASMDNENMHTPDIGGQGTTSEAIQDVIRHIRVINGRAVEA
notes: alpha and gamma co-expressed in E. coli BL21(DE3) from pQlinkN; gamma C-terminal TEV-His6, His6 cleaved by TEV; 80 kDa heterodimer (dimer of heterodimers at high concentration)
One may read the kcat/Km as the second-order rate constant that governs catalysis at low substrate concentration. As for B1, where the note is “Hill 1.0”, the K0.5 turned out to be 4.51 ± 0.43 mM and the kcat/Km is 330 ± 10 M⁻¹ s⁻¹.

B2: αγ heterodimer of human NAD-IDH (IDH3) (Homo sapiens; P51553:R311A) (protein)
chain 1: B1 chain 1
chain 2: B1 chain 2 with A97R, R272A
notes: as for B1
As to B2, under “Hill 1.0”, the K0.5 is listed as 19.3 ± 1.0 mM and the kcat/Km was 210 ± 10 M⁻¹ s⁻¹.

B3: αγ heterodimer of human NAD-IDH (IDH3) (Homo sapiens; P51553:K190A) (protein)
chain 1: B1 chain 1
chain 2: B1 chain 2 with A97R, K151A
notes: as for B1
As for B3, under “Hill 1.1”, the K0.5 was 8.12 ± 0.16 mM and the kcat/Km is 90 ± 2 M⁻¹ s⁻¹.

B4: αγ heterodimer of human NAD-IDH (IDH3) (Homo sapiens) (protein)
chain 1: B1 chain 1
chain 2: B1 chain 2 with A97R
notes: as for B1
Turning to B4, the K0.5 is 4.49 ± 0.15 mM and the catalytic efficiency (kcat/Km) came out at 2160 ± 30 M⁻¹ s⁻¹.

B5: αγ heterodimer of human NAD-IDH (IDH3) (Homo sapiens; P50213:Y255F) (protein)
chain 1: B1 chain 1 with Y228F
chain 2: B1 chain 2 with A97R
notes: as for B1
In the case of B5, under “Hill 1.1”, the K0.5 was found to be 14.5 ± 0.9 mM and the kcat/Km worked out at 46 ± 2 M⁻¹ s⁻¹.

B6: αγ heterodimer of human NAD-IDH (IDH3) (Homo sapiens; P51553:D229A) (protein)
chain 1: B1 chain 1
chain 2: B1 chain 2 with A97R, D190A
notes: as for B1
Regarding B6, under “Hill 1.1”, the K0.5 was 10.2 ± 0.6 mM and the kcat/Km came out at 730 ± 40 M⁻¹ s⁻¹.

B7: αγ heterodimer of human NAD-IDH (IDH3) (Homo sapiens; P50213:K200A) (protein)
chain 1: B1 chain 1 with K173A
chain 2: B1 chain 2 with A97R
notes: as for B1
In the case of B7, for the setting “Hill 1.2”, the K0.5 worked out at 6.38 ± 1.27 mM and the kcat/Km was determined as 380 ± 30 M⁻¹ s⁻¹.

B8: αγ heterodimer of human NAD-IDH (IDH3) (Homo sapiens; P51553:Y276F) (protein)
chain 1: B1 chain 1
chain 2: B1 chain 2 with A97R, Y237F
notes: as for B1
As for B8, under “Hill 1.0”, the K0.5 turned out to be 14.8 ± 0.5 mM and the kcat/Km turned out to be 250 ± 10 M⁻¹ s⁻¹.

B9: αγ heterodimer of human NAD-IDH (IDH3) (Homo sapiens; P51553:Y174F) (protein)
chain 1: B1 chain 1
chain 2: B1 chain 2 with A97R, Y135F
notes: as for B1
Regarding B9, for the setting “Hill 1.1”, the K0.5 came out at 8.80 ± 0.54 mM and the kcat/Km stood at 270 ± 10 M⁻¹ s⁻¹.

B10: αγ heterodimer of human NAD-IDH (IDH3) (Homo sapiens; P50213:N202A) (protein)
chain 1: B1 chain 1 with N175A
chain 2: B1 chain 2 with A97R
notes: as for B1
Turning to B10, for the setting “Hill 1.2”, the K0.5 turned out to be 5.80 ± 0.84 mM and the kcat/Km was determined as 290 ± 10 M⁻¹ s⁻¹.

B11: αγ heterodimer of human NAD-IDH (IDH3) (Homo sapiens; P51553:R167A) (protein)
chain 1: B1 chain 1
chain 2: B1 chain 2 with A97R, R128A
notes: as for B1
In the case of B11, where the note is “Hill 1.1”, the K0.5 is recorded as 8.57 ± 0.42 mM and the kcat/Km came to 260 ± 10 M⁻¹ s⁻¹.
